Reference: article PMC3430610, “Brassica napus PHR1 Gene Encoding a MYB-Like Protein Functions in Response to Phosphate Starvation”

Molecular target: MBP-BnPHR1 (Brassica napus, UniProt W5QL02 1-417)
Assay: EMSA; EMSA: 750 mM KCl, 0.5 mM DTT, 0.5 mM EDTA, 50 mM Tris pH 7.4 (so in the source), room temperature, 20 min; native PAGE, SYBR Green then SYPRO Ruby stain
Conditions: protein: recombinant; tags: N-terminal MBP (pMAL-c2); chain copies: 2; label: none (SYBR Green post-stain); 5' overhang 4 nt on both strands (AATT and CCGG), 41 bp duplex

MBP-BnPHR1, sequence (W5QL02 entry or part of it): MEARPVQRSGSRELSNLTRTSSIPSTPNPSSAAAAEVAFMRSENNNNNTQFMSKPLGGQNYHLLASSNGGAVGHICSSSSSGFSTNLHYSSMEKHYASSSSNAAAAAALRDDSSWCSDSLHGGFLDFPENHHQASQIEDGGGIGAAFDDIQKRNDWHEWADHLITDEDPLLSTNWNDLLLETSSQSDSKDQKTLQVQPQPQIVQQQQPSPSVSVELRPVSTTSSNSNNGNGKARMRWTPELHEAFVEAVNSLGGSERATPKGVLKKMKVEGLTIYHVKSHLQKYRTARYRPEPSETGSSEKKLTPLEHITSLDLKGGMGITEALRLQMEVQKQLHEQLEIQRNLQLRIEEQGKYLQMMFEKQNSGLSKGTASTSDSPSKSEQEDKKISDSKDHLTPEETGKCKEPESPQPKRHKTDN

B1: BnPT2 promoter probe (BnPT2p1/p2) (dsDNA)
DNA 1: AATTGGAGGGGAATATACCGAAACATTGTTGTATATTCATGTAAG
DNA 2: CCGGCTTACATGAATATACAACAATGTTTCGGTATATTCCCCTCC
B1: binds.
